T1: ARHGEF11, O15085
T1 sequence (O15085 42-136, limits assumed, looked up): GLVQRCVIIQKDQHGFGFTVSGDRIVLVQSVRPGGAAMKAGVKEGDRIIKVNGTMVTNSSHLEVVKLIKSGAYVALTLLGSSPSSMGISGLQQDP

T2: DLG3_1, Q92796
T2 sequence (Q92796 125-227, limits assumed, looked up): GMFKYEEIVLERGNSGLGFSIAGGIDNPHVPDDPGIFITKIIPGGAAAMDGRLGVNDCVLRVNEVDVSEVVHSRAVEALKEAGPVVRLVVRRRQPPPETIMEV

T3: DLG3_2, Q92796
T3 sequence (Q92796 221-321, limits assumed, looked up): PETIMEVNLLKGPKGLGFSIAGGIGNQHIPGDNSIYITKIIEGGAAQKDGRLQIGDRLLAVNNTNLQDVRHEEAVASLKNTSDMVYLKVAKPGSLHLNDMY

T4: GRIP1_5, Q9Y3R0
T4 sequence (Q9Y3R0 568-668, limits assumed, looked up): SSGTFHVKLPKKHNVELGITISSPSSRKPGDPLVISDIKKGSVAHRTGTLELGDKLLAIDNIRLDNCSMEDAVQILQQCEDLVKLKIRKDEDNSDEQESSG

T5: LIN7A, O14910
T5 sequence (O14910 103-200, limits assumed, looked up): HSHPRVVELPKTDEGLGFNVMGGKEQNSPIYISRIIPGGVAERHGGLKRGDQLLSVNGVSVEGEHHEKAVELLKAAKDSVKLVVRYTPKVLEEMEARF

T6: MPP6, Q9NZW5
T6 sequence (Q9NZW5 125-219, limits assumed, looked up): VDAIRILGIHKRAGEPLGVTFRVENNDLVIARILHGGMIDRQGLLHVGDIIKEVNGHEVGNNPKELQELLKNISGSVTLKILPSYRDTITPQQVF

T7: RADIL, Q96JH8
T7 sequence (Q96JH8 971-1071, limits assumed, looked up): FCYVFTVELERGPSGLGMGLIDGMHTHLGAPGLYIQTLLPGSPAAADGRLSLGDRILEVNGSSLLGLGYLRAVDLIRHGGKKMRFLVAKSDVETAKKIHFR

T8: SHANK1, Q9Y566
T8 sequence (Q9Y566 658-767, limits assumed, looked up): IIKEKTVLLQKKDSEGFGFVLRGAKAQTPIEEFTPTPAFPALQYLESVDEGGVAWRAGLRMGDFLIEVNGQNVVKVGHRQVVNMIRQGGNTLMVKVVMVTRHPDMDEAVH

T9: SIPA1L2, Q9P2F8
T9 sequence (Q9P2F8 945-1036, limits assumed, looked up): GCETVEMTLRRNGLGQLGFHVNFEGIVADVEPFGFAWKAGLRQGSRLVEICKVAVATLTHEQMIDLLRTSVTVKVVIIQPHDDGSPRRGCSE


Legend:
Assay in all cases: holdup assay
Design in all cases: key: below the threshold = too weak to quantify, mostly under pKd 3.1 to 4
Conditions in all cases: plain residues with an end cap or a label only (N-terminal biotin on a linker: ado-ado)
[1] = target: AHNAK1, Q09666
Sequence of AHNAK1, Q09666 (Q09666 4-100): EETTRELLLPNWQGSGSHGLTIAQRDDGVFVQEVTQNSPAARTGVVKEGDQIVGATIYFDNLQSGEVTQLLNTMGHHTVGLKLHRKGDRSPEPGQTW

[2] = target: T1, ARHGEF11, O15085
[3] = target: DLG1_1, Q12959
[4] = target: DLG1_3, Q12959
[5] = target: T2, DLG3_1, Q92796
[6] = target: T3, DLG3_2, Q92796
[7] = target: DLG4_2, P78352
Sequence of DLG4_2, P78352 (P78352 155-259): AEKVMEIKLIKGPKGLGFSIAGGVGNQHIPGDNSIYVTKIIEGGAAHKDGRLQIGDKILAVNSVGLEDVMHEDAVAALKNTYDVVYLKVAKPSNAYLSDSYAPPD

[8] = target: DLG4_3, P78352
Sequence of DLG4_3, P78352 (P78352 306-403): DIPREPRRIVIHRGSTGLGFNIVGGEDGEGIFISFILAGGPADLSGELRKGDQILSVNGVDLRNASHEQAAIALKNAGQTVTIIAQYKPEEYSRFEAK

[9] = target: FRMPD3, Q5JV73
Sequence of FRMPD3, Q5JV73 (Q5JV73 12-100): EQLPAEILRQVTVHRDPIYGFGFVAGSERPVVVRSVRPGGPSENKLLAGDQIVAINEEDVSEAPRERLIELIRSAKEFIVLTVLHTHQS

[10] = target: GOPC, Q9HD26
[11] = target: GORASP2, Q9H8Y8
[12] = target: GRASP, Q7Z6J2
Sequence of GRASP, Q7Z6J2 (Q7Z6J2 96-193): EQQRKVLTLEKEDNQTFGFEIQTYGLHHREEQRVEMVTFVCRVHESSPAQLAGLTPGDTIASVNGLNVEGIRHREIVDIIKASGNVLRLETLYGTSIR

[13] = target: T4, GRIP1_5, Q9Y3R0
[14] = target: IL16_1, Q14005
Sequence of IL16_1, Q14005 (Q14005 210-306): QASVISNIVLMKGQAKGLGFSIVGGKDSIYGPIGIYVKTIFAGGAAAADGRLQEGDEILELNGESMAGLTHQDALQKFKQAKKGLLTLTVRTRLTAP

[15] = target: LDB3, O75112
Sequence of LDB3, O75112 (O75112 1-94): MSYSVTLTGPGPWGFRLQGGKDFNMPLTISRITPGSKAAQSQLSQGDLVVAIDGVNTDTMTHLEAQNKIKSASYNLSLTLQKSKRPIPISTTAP

[16] = target: T5, LIN7A, O14910
[17] = target: MAGI1_2, Q96QZ7
Sequence of MAGI1_2, Q96QZ7 (Q96QZ7 456-580): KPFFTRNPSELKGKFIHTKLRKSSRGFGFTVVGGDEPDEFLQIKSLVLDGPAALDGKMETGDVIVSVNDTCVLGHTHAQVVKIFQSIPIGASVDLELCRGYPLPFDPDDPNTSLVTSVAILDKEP

[18] = target: MAGI2_2, Q86UL8
Sequence of MAGI2_2, Q86UL8 (Q86UL8 410-522): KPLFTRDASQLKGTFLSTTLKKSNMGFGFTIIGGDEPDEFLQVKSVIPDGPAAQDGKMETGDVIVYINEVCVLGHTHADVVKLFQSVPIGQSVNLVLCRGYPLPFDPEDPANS

[19] = target: MAGI3_2, Q5TCQ9
Sequence of MAGI3_2, Q5TCQ9 (Q5TCQ9 398-503): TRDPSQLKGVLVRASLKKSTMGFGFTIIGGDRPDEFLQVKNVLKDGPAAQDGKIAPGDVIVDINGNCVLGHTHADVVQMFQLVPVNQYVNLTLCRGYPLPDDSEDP

[20] = target: T6, MPP6, Q9NZW5
[21] = target: PDLIM1, O00151
Sequence of PDLIM1, O00151 (O00151 1-87): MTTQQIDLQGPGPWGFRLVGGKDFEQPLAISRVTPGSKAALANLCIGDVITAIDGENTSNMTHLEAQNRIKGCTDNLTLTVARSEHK

[22] = target: T7, RADIL, Q96JH8
[23] = target: SCRIB_2, Q14160
Sequence of SCRIB_2, Q14160 (Q14160 857-960): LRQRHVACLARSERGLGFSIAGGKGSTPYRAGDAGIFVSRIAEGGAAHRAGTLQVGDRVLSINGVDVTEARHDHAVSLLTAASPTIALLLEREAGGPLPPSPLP

[24] = target: SCRIB_3, Q14160
Sequence of SCRIB_3, Q14160 (Q14160 999-1103): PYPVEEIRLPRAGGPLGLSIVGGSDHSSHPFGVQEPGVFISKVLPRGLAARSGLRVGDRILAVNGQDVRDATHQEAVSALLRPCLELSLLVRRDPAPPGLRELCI

[25] = target: T8, SHANK1, Q9Y566
[26] = target: T9, SIPA1L2, Q9P2F8
[27] = target: TJP1_2, Q07157
Sequence of TJP1_2, Q07157 (Q07157 181-274): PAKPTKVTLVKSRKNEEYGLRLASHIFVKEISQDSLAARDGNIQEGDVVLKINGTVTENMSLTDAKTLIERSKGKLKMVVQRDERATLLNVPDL

[28] = target: TJP2_1, Q9UDY2
Sequence of TJP2_1, Q9UDY2 (Q9UDY2 24-128): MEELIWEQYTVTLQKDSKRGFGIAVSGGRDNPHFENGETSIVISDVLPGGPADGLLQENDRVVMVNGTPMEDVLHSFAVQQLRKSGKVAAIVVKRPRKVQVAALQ

| Binder | pKd [1] | pKd [2] | pKd [3] | pKd [4] | pKd [5] | pKd [6] | pKd [7] | pKd [8] | pKd [9] | pKd [10] | pKd [11] | pKd [12] | pKd [13] | pKd [14] | pKd [15] | pKd [16] | pKd [17] | pKd [18] | pKd [19] | pKd [20] | other results |
| --- | --- | --- | --- | --- | --- | --- | --- | --- | --- | --- | --- | --- | --- | --- | --- | --- | --- | --- | --- | --- | --- |
| DDPSTAETVL [ABCA7, Q8IZY2] | below the threshold | 3.98 | below the threshold | below the threshold | below the threshold | 4.37 | 3.7 | below the threshold | below the threshold | below the threshold | below the threshold | below the threshold | below the threshold | below the threshold | below the threshold | below the threshold | below the threshold | below the threshold | below the threshold | below the threshold | pKd [21]: below the threshold; pKd [22]: 3.52; pKd [23]: below the threshold; pKd [24]: 4.73; pKd [25]: 4.74; pKd [26]: below the threshold; pKd [27]: below the threshold; pKd [28]: below the threshold |
| HLRARKSEWV [GJD4, Q96KN9] | below the threshold | below the threshold | below the threshold | below the threshold | below the threshold | 4.33 | 4.11 | below the threshold | below the threshold | below the threshold | 5.57 | 4.01 | below the threshold | below the threshold | below the threshold | below the threshold | below the threshold | below the threshold | 4.04 | below the threshold | pKd [21]: below the threshold; pKd [22]: 4.85; pKd [23]: below the threshold; pKd [24]: below the threshold; pKd [25]: below the threshold; pKd [26]: below the threshold; pKd [27]: 4.97; pKd [28]: 6.04 |
| PEYLGLDVPV [ERBB2, P04626] | below the threshold | 3.83 | below the threshold | below the threshold | below the threshold | 3.53 | 3.48 | below the threshold | 3.78 | below the threshold | below the threshold | below the threshold | below the threshold | 3.65 | below the threshold | below the threshold | below the threshold | below the threshold | below the threshold | below the threshold | pKd [21]: below the threshold; pKd [22]: below the threshold; pKd [23]: below the threshold; pKd [24]: below the threshold; pKd [25]: below the threshold; pKd [26]: below the threshold; pKd [27]: 3.65; pKd [28]: below the threshold |
